Experimental data as given in paper PMC7388967.

Key:
[1] = biological target: Collagen I Rat Protein, Tail (rat collagen type I) (rat) (UniProt P02454); experiment: whole-cell adhesion assay (fluorescence of sfGFP-expressing bacteria); commercial 96-well plates pre-coated with rat collagen type I (GIBCO); YadA induced with 0.2 µg/ml ATc, compared with the not-induced control
[2] = biological target: Collagen I Bovine Protein (bovine collagen type I) (bovine) (UniProt P02453); experiment: whole-cell adhesion assay (fluorescence of sfGFP-expressing bacteria); strain AS76; wells coated with 100 µg/ml bovine collagen type I for 30 min, with or without blocking with 50 mg/ml BSA in PBS for 30 min; YadA induced with 0.1 µg/ml ATc, compared with uninduced cells
UniProt P02453, sequence (P02453 162-1217, chain 1 of 2): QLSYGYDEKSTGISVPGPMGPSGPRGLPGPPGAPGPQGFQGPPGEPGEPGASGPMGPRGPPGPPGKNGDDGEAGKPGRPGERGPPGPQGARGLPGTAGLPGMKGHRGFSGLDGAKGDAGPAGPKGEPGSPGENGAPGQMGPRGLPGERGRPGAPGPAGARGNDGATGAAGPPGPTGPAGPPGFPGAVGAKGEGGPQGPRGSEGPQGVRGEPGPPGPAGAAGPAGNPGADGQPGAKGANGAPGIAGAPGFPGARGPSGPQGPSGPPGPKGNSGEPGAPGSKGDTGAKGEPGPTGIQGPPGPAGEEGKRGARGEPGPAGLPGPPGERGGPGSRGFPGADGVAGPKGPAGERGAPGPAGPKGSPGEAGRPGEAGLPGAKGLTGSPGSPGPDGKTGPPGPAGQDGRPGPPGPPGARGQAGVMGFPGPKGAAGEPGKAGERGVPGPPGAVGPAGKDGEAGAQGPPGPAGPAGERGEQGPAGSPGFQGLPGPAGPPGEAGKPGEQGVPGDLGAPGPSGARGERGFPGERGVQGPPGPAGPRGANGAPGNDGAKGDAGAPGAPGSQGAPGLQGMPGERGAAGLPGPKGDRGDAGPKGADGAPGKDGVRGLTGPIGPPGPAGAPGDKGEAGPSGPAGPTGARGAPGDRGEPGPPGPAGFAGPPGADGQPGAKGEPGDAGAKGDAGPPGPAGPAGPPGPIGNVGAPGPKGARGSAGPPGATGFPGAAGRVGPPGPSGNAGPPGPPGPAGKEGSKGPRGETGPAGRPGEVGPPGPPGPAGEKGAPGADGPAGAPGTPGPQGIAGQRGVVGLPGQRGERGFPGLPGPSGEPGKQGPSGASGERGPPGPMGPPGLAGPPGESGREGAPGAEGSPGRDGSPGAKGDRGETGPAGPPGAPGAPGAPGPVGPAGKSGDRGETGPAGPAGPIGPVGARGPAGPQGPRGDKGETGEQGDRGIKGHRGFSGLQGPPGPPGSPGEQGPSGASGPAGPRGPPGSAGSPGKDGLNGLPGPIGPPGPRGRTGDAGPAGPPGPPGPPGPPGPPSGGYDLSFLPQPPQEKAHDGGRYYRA
UniProt P02453, sequence (P02465 80-1117, chain 2 of 2, further chain): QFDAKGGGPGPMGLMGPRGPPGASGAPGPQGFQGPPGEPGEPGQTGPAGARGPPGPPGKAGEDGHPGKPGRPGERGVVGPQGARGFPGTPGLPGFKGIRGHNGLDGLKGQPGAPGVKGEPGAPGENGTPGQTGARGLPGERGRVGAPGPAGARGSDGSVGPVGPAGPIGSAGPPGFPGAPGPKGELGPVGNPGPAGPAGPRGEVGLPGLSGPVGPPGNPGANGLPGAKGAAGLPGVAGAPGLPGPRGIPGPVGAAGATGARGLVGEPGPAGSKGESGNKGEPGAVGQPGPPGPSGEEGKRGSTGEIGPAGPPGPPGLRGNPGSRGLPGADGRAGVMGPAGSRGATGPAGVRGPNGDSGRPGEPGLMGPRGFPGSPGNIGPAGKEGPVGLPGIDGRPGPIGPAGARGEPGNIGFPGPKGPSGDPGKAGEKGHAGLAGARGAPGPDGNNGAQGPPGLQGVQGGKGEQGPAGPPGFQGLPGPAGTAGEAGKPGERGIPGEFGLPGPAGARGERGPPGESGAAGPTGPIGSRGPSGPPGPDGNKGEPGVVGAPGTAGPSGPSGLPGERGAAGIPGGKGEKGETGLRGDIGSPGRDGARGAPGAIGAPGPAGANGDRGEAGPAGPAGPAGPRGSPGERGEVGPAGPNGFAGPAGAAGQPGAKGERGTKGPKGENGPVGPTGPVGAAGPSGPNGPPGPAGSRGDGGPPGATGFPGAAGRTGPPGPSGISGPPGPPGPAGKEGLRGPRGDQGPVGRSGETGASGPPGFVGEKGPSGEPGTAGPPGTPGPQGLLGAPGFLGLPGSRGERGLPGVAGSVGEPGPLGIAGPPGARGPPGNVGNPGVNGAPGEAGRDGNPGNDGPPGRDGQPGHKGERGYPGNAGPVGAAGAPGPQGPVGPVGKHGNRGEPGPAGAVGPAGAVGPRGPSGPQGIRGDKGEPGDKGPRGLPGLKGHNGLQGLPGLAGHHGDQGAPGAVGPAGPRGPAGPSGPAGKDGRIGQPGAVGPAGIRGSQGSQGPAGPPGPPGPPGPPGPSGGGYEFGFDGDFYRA

UniProt P02454, sequence (P02454 152-1207, chain 1 of 2): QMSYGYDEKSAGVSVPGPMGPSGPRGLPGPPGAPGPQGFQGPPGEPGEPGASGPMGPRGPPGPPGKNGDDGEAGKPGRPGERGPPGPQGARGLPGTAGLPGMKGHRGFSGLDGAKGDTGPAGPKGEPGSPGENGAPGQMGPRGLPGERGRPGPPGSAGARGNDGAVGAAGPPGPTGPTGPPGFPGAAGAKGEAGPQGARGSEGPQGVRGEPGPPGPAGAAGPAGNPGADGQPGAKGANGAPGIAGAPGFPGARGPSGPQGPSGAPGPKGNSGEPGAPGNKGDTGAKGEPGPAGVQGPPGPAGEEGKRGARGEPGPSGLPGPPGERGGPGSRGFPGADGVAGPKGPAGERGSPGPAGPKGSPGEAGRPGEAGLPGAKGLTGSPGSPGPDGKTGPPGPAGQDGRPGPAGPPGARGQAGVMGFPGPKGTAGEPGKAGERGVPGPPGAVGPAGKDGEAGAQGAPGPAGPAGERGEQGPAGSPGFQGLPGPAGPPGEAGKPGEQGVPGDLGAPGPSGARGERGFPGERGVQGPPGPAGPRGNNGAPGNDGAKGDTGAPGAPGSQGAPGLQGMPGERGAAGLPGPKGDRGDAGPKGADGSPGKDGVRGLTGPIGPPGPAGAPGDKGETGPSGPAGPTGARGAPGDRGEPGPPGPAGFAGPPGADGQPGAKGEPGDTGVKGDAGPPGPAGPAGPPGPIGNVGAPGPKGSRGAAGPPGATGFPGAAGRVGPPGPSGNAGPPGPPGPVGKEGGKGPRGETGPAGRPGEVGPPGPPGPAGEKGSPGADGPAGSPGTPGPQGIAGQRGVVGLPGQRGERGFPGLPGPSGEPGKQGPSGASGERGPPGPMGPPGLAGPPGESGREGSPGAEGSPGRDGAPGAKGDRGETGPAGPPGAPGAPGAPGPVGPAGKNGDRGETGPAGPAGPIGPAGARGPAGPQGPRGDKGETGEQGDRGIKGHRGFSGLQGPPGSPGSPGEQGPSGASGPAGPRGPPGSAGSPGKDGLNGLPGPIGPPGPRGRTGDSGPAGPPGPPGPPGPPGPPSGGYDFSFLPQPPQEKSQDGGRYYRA
UniProt P02454, sequence (P02466 86-1125, chain 2 of 2, further chain): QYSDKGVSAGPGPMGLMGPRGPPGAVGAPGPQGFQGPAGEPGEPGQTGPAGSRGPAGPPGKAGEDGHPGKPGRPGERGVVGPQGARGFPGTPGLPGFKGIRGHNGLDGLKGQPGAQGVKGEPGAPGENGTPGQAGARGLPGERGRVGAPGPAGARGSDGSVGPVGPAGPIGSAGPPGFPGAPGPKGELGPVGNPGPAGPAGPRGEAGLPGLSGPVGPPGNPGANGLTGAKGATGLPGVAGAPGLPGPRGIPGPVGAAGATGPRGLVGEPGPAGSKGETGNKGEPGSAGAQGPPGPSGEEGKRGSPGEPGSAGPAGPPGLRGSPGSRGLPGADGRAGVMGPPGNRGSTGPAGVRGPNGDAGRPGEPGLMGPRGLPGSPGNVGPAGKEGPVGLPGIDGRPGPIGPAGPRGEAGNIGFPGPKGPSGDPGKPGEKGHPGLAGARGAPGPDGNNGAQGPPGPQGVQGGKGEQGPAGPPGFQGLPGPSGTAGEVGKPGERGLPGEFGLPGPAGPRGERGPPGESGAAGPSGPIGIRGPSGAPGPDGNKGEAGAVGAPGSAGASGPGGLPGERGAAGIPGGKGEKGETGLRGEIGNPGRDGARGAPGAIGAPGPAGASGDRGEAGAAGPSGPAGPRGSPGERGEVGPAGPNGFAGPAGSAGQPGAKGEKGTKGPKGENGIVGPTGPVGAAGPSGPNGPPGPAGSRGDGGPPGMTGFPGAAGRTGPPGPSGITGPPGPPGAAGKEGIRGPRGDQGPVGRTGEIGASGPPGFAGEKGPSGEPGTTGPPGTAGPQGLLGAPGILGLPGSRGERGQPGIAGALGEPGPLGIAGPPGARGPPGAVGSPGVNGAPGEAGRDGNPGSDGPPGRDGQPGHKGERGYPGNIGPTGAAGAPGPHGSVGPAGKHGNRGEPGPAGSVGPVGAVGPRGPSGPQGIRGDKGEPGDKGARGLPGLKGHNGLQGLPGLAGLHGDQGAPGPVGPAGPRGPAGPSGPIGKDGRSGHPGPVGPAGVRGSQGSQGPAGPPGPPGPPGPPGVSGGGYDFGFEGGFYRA

For “Yersinia enterocolitica Adhesin A (YadA), wild type, on the surface of E. coli cells (from UniProt A1JUB7 26-422) (natural protein)”, the fold difference of signal, induced against not-induced control [1] was 2.5 fold, the fold change of signal, YadA-expressing against uninduced cells (collagen-coated, BSA-blocked wells) [2] was 4.1 fold and the fold change of signal, YadA-expressing against uninduced cells (collagen-coated, not BSA-blocked wells) [2] was 4.4 fold.
